Laboratory results published in patent US20200079850A1 (SUTRO BIOPHARMA, published 2020).

Key:
[1] = biological target: T1, human LAG3-Fc (R&D Systems #2319-L3) (human, UniProt P18627 23-450); test: SPR (Biacore), antibody captured by anti-Flag, LAG3-Fc as analyte, 25 C
T1 construct: Bought protein; also called Human LAG3 (Biacore)
T1 sequence: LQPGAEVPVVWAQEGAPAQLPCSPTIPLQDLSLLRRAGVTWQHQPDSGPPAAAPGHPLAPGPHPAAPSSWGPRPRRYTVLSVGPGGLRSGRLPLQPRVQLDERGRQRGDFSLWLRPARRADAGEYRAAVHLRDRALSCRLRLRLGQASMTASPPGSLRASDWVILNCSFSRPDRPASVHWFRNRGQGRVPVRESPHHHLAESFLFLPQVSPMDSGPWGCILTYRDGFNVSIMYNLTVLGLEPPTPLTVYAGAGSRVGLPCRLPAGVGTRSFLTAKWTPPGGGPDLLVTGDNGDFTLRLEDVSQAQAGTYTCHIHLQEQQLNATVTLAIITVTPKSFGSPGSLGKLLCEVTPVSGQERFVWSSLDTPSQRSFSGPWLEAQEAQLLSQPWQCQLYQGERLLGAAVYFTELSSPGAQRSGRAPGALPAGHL
Protocol: Anti-Flag M2 IgG (Sigma-Aldrich # F9291) was immobilized onto a CMS chip (GE Life Sciences) using amine coupling chemistry (from Amine Coupling Kit, GE Life Sciences). The immobilization steps were carried out at a flow rate of 25 μL/min in 1×HBS-EP+ buffer (GE Life Sciences; 10×Stock diluted before use). The sensor surfaces were activated for 7 min with a mixture of NHS (0.05 M) and EDC (0.2 M). The Anti-Flag M2 IgG was injected over all 4 flow cells at a concentration of 25 μg/mL in 10 mM sodium acetate, pH 4.5, for 7 min. Ethanolamine (1 M, pH 8.5) was injected for 7 min to block any remaining activated groups. An average of 12,000 response units (RU) of capture antibody was immobilized on each flow cell.
Off-rate and kinetic binding experiments were performed at 25° C. using 1×HBS-EP+buffer. Test and control antibodies were injected over the Anti-Flag surface at concentrations of 5-10 μg/mL for 12 seconds at a flow rate of 10 μL/min on flow cells 2, 3 and 4, followed by a buffer wash for 30 seconds at the same flow rate. Kinetic characterization of antibody samples was carried out with a single concentration of antigen (for off-rate ranking) or a dilution series of antigen (for kinetic characterization) and 1 injection of 0 nM antigen. After capturing ligand (antibody) on the anti-Flag surface, the analyte (human LAG3-Fc, R&D Systems #2319-L3; or cynomolgus LAG3-Fc, accession # NC 022282.1) was bound at 50, 25, 12.5, 6.25, and 0 nM for 180 seconds, followed by a 600 second dissociation phase at a flow rate of 50 μl/min Between each ligand capture and analyte binding cycle, regeneration was carried out using 2 injections of 10 mM glycine pH 2.0 for 30 seconds at 30 μL/min, followed by a 30 second buffer wash step.
The data were fit with the Biacore T200 Evaluation software, using a 1:1 Langmuir binding model. KD (affinity, nM) was determined as a ratio of the kinetic rate constants calculated from the fits of the association and dissociation phases.

[2] = biological target: T2, recombinant human LAG3 protein (rhLAG3), HIS-tagged (ACRO) or biotinylated (R&D Cat #2319-C3) (human, UniProt P18627 23-450, biotinylated in part of the assays); test: flow cytometry competition, rhLAG3 binding to Daudi cells; competitor MHCII
T2 sequence: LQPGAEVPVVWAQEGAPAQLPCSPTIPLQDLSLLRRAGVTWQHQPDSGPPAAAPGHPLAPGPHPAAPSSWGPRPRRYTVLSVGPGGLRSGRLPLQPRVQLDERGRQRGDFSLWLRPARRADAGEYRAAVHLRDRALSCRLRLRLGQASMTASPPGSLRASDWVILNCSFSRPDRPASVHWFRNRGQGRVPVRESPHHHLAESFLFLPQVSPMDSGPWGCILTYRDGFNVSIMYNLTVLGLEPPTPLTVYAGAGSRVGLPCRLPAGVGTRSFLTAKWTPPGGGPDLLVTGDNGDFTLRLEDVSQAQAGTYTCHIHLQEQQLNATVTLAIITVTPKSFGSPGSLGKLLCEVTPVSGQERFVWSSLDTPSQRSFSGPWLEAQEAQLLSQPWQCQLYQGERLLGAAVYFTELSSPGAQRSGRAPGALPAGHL
Protocol: DAUDI cells express high levels of Major Histocompatibility Class II (MHCII) molecules, a natural ligand for LAG3, on the cell surface. DAUDI cells were used to screen for antibodies that inhibit binding of HIS-tagged (ACRO) or biotinylated recombinant human LAG3 protein (rhLAG3) to MHCII expressed on the cell surface.
DAUDI cells were cultured in RPMI w/10% FCS Pen/Strep and Gln and split every 3-4 days at 10^5 cells/ml. Cells were washed 2× with FACS buffer (PBS w/2% FCS), […] at a final concentration of 1×10⁶ cells/ml and seeded at 100 μl per well on 96 well polypropylene plates. Plates were spun at 1500 rpm for 5 minutes and cell pellets were suspended in 50 μl FACS buffer containing 8 point 1:3 dilutions (2× concentrated) of anti-LAG3 antibody variants, starting from high concentration of −600 nM. 50 μl FACS buffer containing 10-20 μg/ml of the HIS-tagged rhLAG3 protein or 40 μg/ml of the biotinylated rhLAG3 protein were then added to the cells. Cell were then incubated in ice for 1 hr, washed with FACS buffer and incubated for 1 hr in ice with 50 μl FACS buffer containing 2 μg/ml R-Phycoerythrin-conjugated Streptavidin (eBiosciences) or 1 μg/ml R-Phycoerythrin-conjugated anti-HIS IgG (Abcam). Cell were washed 2× with FACS buffer and fixed for 10 minutes in 200 μl PBS w/2% PFA prior to acquisition.

[3] = biological target: T3, human LAG3 expressed on the cell surface (CHO-LAG3, 293T-LAG3 cells) (human, UniProt P18627 23-525); test: flow cytometry, CHO cells expressing human LAG3
T3 construct: Stably transfected CHO or HEK293T cells; also called Human LAG3 (CHO); Human LAG3 (293T)
T3 sequence: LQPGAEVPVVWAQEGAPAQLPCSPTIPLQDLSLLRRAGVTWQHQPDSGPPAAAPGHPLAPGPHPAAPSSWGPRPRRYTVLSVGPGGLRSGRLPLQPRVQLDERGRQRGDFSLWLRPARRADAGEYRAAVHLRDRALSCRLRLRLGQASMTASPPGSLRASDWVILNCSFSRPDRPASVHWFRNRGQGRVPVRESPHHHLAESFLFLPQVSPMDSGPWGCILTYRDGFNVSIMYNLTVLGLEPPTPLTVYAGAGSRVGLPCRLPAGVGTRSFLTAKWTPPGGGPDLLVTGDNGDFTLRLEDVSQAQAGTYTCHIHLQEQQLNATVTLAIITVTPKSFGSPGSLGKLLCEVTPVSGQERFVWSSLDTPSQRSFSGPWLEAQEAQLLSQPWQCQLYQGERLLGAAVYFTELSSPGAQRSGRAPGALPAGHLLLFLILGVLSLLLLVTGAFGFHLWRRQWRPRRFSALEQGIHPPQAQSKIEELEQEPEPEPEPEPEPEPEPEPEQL
Protocol: LAG3 antibody variants were tested in a fluorescence-activated cell sorting (FACS) cell-binding assay. Chinese Hamster Ovary (CHO) cells or HEK293T cells stably expressing the human target molecule LAG3 on the cell surface (CHO-LAG3, 293T-LAG3) were used to screen for cell binders by flow cytometry. Parental CHO or 293T cells were used as a negative control to determine background-binding levels. Cells were cultured in RPMI with 10% FCS Penicillin/Streptomycin (or Pen/Strep) and glutamine (or Gln) and split every 3-4 days at 10⁵ cells/ml.
A mix of parental CHO cells and CHO-LAG3 cells (or 293T and 293T-LAG3 cells) was prepared as follows: Parental CHO cells were washed 2× in PBS then incubated in PBS containing 1 nM CellTrace™ Oregon Green488® (Life Technologies) at 37° C. for 30 minutes. […] Parental CHO cells and CHO-LAG3 cells were then mixed to obtain a 1:1 cell suspension and seeded at 100 μl per well on 96 well polypropylene plates. Plates were spun at 1500 rpm for 5 minutes and cell pellets were suspended in 50 μl FACS buffer containing 6-12 point dilutions of anti-LAG3 variants starting from concentrations of ˜100-200 nM antibody, dispensed using BioMekFX (Beckman Coulter). Cells were then incubated on ice for 1 hr, washed with FACS buffer and incubated for 1 hr on ice with 50 μl FACS buffer containing 2.5 μg/ml R-Phycoerythrin-conjugated Goat Anti-Human IgG (Jackson ImmunoResearch) or AF647-conjugated Goat Anti-mouse IgG (Life Technologies) dispensed using BioMekFX (Beckman Coulter). Cells were then washed 2× with FACS buffer and fixed for 10 minutes in 200 μl PBS with 2% PFA prior to fluorescence detection. Samples were acquired using a Beckton Dickinson LSRII FACS. Mean Fluorescence Intensity of LAG3 antibody binding was analyzed using Tree Star, Inc. FlowJo® software.

[4] = biological target: T4, human PD-1 expressed on the surface of CHO cells (human, UniProt Q15116 25-288); test: flow cytometry, CHO-PD1 cells
T4 construct: I took it as human PD-1; also called CHO-PD1
T4 sequence (Q15116 25-288 limits assumed): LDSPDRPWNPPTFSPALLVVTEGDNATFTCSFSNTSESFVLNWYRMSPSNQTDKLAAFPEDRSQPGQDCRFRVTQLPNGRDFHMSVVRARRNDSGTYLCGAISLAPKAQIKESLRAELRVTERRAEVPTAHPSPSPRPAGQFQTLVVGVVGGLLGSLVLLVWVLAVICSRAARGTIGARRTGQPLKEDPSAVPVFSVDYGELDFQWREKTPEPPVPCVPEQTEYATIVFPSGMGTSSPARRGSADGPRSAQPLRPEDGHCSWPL
Protocol: CHO-k cells stably expressing PD-1 or LAG3 (human or cynomolgus) on the cell surface were used to assess binding affinity of anti-PD-1/LAG3 bispecific antibody constructs. Cells were seeded at 100,000 cells/well in 100 μL of FACS buffer (1×PBS, 0.5% BSA, 0.1% sodium azide) in 96-well polypropylene plates. The cells were centrifuged at 1.5K rpm and resuspended with test antibodies diluted in FACS buffer and incubated on ice for 1 hour. The cells were washed twice with FACS buffer and incubated on ice for 30 mins with R-Phycoerythrin-AffiniPure F(ab′)2 Fragment Goat Anti-Human IgG (H+L) secondary detection antibody (1:200 dilution, Jackson ImmunoResearch Laboratories, West Grove, Pa.). The cells were washed twice with FACS buffer, fixed in 4% paraformaldehyde in PBS (Santa Cruz Biotechnology; Dallas, Tex.) for 20 mins on ice in the dark, washed twice with FACS buffer, and analyzed using the BD LSR II Flow Cytometer (BD Biosciences; San Jose, Calif.). Data were analyzed using FlowJo (FlowJo, LLC; Ashland, Oreg.) to determine mean fluorescence intensities. Binding constants were calculated using the statistical software, GraphPad Prism (GraphPad Software; La Jolla, Calif.) using the nonlinear regression equation, one site—specific binding with Hill slope. The secondary antibody by itself was used as a control.

Row | Kd [1] | koff [1] | kon [1] | IC50 [2] | Kd [3] | Bmax [4] | Kd [4] | Binder
1 | 0.676 nM | 0.000536 s⁻¹ | 794000 M⁻¹ s⁻¹ | 1.2 nM | 1.06 nM | – | – | SRP1449-B07 (scFv, V domains shown) VH: QVQLVESGGGVVQPGRSLRLSCAASGFTFSSYGMHWVRQAPGKGLEWVAVIWYDGSNKYYADSVKGRFTISRDNSKNTLYLQMNSLRAEDTAVYYCAREWAVSSWDYGMDVWGQGTTVTVSS VL: not shown
2 | – | – | – | – | – | 5460 | 0.4 nM | Construct H: aPD1 1353-G10 Fab_H × aLAG3 1449-G09.2 scFvFc_K (three-chain Fab x scFvFc) (bispecific antibody, human IgG1, lambda) heavy: not shown light: MSYELTQPPSVSVSPGQTARITCSGDALPKQYAYWYQQKPGQAPVMVIYKDTERPSGIPERFSGSSSGTKVTLTISGVQAEDEADYYCQSADNSITYRVFGGGTKVTVLGQPKAAPSVTLFPPSSEELQANKATLVCLISDFYPGAVTVAWKADSSPVKAGVETTTPSKQSNNKYAASSYLSLTPEQWKSHRSYSCQVTHEGSTVEKTVAPTECS scFv: not shown

Continued, binder first:

Row | Binder | Kd [1] | koff [1] | kon [1] | IC50 [2] | Kd [3] | Bmax [4] | Kd [4]
3 | 421.61.4.5G11 (antibody, V domains shown) VH: EVQLQQSGAELVRSGASVKLSCTASGFNIKDYYMHWVKQRPEQGLEWIAWIDPENGDTEYAPKFQGRATLTADTSSNTAYLHLSSLTSEDTAVYYCNAPDALDYWGQGTSVTVSS VL: not shown | 10.3 nM | 0.000515 s⁻¹ | 50200 M⁻¹ s⁻¹ | 64.3 nM | 18 nM | – | –
4 | SRP1449-B03 (scFv, V domains shown) VH: QVQLVESGGGVVQPGRSLRLSCAASGFTFSSYGMHWVRQAPGKGLEWVAAIWYDASYKYYADSVKGRFTISRDNSKNTLYLQMNSLRAEDTAVYYCAREWAVASWDYALDVWGQGTTVTVSS VL: EIVLTQSPGTMSLSPGERATLSCRASQSVSSSYLAWYQQKPGQAPRLLIYGASSRATGIPDRFSGSGSGTDFTLTISRLEPEDFAVYYCQQYDRSPLTFGPGTKVDIK | 0.64 nM | 0.000302 s⁻¹ | 472000 M⁻¹ s⁻¹ | 1 nM | 1.92 nM | – | –
5 | Construct G: aPD1 1353-G10 Fab_K × aLAG3 1449-G09.2 scFvFc_H (three-chain Fab x scFvFc) (bispecific antibody, human IgG1, lambda) heavy: not shown light: MSYELTQPPSVSVSPGQTARITCSGDALPKQYAYWYQQKPGQAPVMVIYKDTERPSGIPERFSGSSSGTKVTLTISGVQAEDEADYYCQSADNSITYRVFGGGTKVTVLGQPKAAPSVTLFPPSSEELQANKATLVCLISDFYPGAVTVAWKADSSPVKAGVETTTPSKQSNNKYAASSYLSLTPEQWKSHRSYSCQVTHEGSTVEKTVAPTECS scFv: not shown | – | – | – | – | – | 6380 | 0.8 nM
